According to PMC8204385 (Biophysical Journal, 2021):

B1: SLAM peptide (cytoplasmic tail of SLAM, 77 aa, singly phosphorylated) (peptide)
peptide: QLRRRGKTNHYQTTVEKKSLTIYAQVQKPGPLQKKLDSFPAQDPCTTIYVAATEPVPESVQETNSITVYASVTLPES
modifications: biotin on the N-terminus; phosphotyrosine in the ITSM (position 327 in the native sequence)
notes: cytoplasmic tail of SLAM, 77 aa; only the last tyrosine (327) is phosphorylated; source: synthetic peptide (Peptide Protein Research)
B2: Human SHP-1 with an N-terminal 6x His tag (enzyme)
chain: not shown

Columns and labels:
[1] = target: B2; assay: SPR; biotinylated peptide on streptavidin-coupled CM5 chip (25-100 RU), SHP-1 injected 45 s at 10 uL/min; Biacore T200; 37°C; 10 mM HEPES pH 7.4, 150 mM NaCl, 3 mM EDTA, 0.05% Tween 20, 1 mM dithiothreitol; constants from the fit of the extended MPDPDE model; details: both partners purified
[2] = target: B1; assay: cell-based or functional assay

Binder	Kd [1] [µM]	koff [1] [s⁻¹]	kon [1] [M⁻¹ s⁻¹]	ratio kcat(tethered)/kcat(solution) from the SPR assay (allosteric activation of SHP-1) [2] [fold]
B1	130	1.7	20000	
B2				6.2
